Results published in patent US9273099 (Dana-Farber, dated 2016).
Where no end group is shown, it is not given here. The star is where a group is joined. FITC = O=C1OC2(c3ccc(O)cc3Oc3cc(O)ccc32)c2ccc(NC(=S)*)cc21; βAla = NCCC(=O)O

What was measured:
[1] = biological target: C-terminal deleted GST-BCL-2 (UniProt P10415); test: fluorescence polarization, displacement of prebound FITC-BID BH3 from BCL-2
[2] = biological target: C-terminal deleted GST-BCL-2 (UniProt P10415); test: fluorescence polarization binding
[3] = biological target: C-terminal deleted GST-BCL-2 (UniProt P10415); test: direct fluorescence polarization, 25 nM fluoresceinated peptide with GST-BCL2 25-1000 nM
[4] = biological target: C-terminal deleted GST-BCL-2 (UniProt P10415); test: direct fluorescence polarization
[5] = biological target: C-terminal deleted GST-BCL-2 (UniProt P10415); test: fluorescence polarization competitive binding, FITC-BID BH3 as competitor
[6] = biological target: C-terminal deleted GST-BCL-2 (UniProt P10415); test: fluorescence polarization, displacement of FITC-BID BH3 from BCL-2
Full-length BAX protein = biological target: T1, Full-length BAX protein (UniProt Q07812 1-192, limits assumed); test: BAX fluorescence polarization direct binding assay
T1 construct: mature
Procedure: Binding activity was measured by fluorescence polarization on a Perkin-Elmer LS50B luminescence spectrophotometer. KD values were determined by nonlinear regression analysis using Prism software (Graphpad).

[7] = biological target: C-terminal deleted GST-BCL-2 (UniProt P10415); test: fluorescence polarization direct binding

T1 sequence (Q07812 whole entry): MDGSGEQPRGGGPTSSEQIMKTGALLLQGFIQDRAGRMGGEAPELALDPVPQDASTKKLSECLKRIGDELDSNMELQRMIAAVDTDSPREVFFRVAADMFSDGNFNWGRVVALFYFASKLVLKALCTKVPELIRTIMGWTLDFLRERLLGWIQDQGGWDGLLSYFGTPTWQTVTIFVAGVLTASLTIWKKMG

Molecule: BAD BH3 domain peptide (from UniProt Q92934 103-127)
- IC50 [1]: 173 nM
- Kd [2]: 41 nM

Molecule: FITC-SAHB3BID(G→E)A (peptide)
- Kd [3]: 483 nM

Molecule: FITC-SAHB3BIDA (peptide)
- fold enhancement in binding affinity against unmodified BID BH3 [4]: > 6 fold
- fold enhancement in binding affinity against unmodified BID BH3 peptide [4]: 6 fold
- Kd [3]: 38.8 nM

Molecule: SAHB3BID(tr)B (16-mer) (peptide)
- fold drop against the 23-mer SAHB3BIDB [5]: > 6 fold

Molecule: SAHB3BIDA (unlabeled) (peptide)
- IC50 [6]: 62 nM
- fold increase in displacement potency against unmodified BID BH3 peptide [6]: > 13 fold

B1: FITC-labeled unmodified BID BH3 peptide (peptide, UniProt P55957 80-101, looked up)
peptide: {FITC-βAla}-EDIIRNIARHLAQVGDSMDRSI
notes: domain: BH3; also called FITC-BID BH3; FITC-labeled BID BH3 peptide
- binding result (Full-length BAX protein): no binding
- Kd [7]: 220 nM
